This note sets out measurements from PMC8086355, “The unusual structure of the PiggyMac cysteine-rich domain reveals zinc finger diversity in PiggyBac-related transposases”.

The data set has as its target T1, MBP-PgmD401A (Paramecium tetraurelia, UniProt A0DFJ7 1-1065, D401A).
T1 sequence: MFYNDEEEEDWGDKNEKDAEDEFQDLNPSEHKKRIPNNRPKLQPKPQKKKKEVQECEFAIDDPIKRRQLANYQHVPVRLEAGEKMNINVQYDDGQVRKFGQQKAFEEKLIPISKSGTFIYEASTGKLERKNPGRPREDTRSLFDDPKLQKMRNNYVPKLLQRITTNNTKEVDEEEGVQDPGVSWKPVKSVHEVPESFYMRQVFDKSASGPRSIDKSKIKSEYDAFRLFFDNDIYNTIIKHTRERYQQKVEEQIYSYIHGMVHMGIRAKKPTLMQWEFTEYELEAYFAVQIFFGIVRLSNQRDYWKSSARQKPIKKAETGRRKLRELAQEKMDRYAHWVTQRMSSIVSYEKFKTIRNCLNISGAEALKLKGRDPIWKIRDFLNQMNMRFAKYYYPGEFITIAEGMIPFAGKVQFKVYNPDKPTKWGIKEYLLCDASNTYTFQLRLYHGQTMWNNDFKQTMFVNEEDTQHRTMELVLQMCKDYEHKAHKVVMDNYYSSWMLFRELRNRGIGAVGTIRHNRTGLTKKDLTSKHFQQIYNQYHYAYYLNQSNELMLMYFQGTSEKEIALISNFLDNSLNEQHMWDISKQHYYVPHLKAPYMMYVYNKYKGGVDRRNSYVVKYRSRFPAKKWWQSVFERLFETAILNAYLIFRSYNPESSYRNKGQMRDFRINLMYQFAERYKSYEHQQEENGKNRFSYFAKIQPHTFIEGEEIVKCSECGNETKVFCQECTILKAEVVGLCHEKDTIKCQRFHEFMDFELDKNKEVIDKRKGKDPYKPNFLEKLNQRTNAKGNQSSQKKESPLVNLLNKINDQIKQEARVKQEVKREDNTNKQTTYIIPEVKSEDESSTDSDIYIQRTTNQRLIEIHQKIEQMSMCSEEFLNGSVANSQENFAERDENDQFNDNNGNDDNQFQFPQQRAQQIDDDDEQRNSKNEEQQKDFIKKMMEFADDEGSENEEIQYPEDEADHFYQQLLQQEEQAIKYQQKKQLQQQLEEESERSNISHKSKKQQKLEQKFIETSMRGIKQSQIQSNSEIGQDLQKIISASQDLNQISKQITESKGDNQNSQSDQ
As to the kind of experiment: DRaCALA; 400 nM protein; DRaCALA: 25 mM HEPES pH 7.5, 0.1 mg/ml BSA, 0.5 mM DTT, 100 mM NaCl, 25 nM DNA, no competitor, temperature not stated; EMSA: as in earlier paper, 5% acrylamide. To be noted: protein: recombinant; tags: N-terminal MBP; label: 32P at 5' end of top strand.

B1: IES 51A1835 80-bp substrate (dsDNA)
DNA 1: ACTACTACATAATGCTAAACTCATTTATAGATGGATTGTTTTCCAAGTATCTATATCATCATGTGTTGCTAATAACCCTG
DNA 2: ATCGCAGGGTTATTAGCAACACATGATGATATAGATACTTGGAAAACAATCCATCTATAAATGAGTTTAGCATTATGTAGT
Turning to B1, the binding result was “binds”.
